Key:
VEGFR2 [1] = experiment: VEGF-induced VEGFR2 phosphorylation in HUVECs in presence of rDPl; format: cell-based, human; conditions: in the presence of rDPl
HUVEC spheroids [2] = experiment: HUVEC spheroid sprouting with VEGF and rDPl; format: cell-based, human; conditions: co-treated with VEGF, different concentrations rDPl
Protocol: To test this hypothesis, HUVEC spheroids were treated with VEGF in the presence or absence of rDPl. VEGF promoted HUVEC spheroid sprouting; the sprouting was augmented when co-treated with different concentrations rDPl and in Hu.dpl spheroids (FIG. 27A).

HUVEC spheroids [3] = experiment: HUVEC spheroids implanted in Matrigel-fibrin gel in vivo; parameters: species or system SCID mice; conditions: VEGF and rDPl-treated HUVEC spheroids
Text: HUVEC spheroids in vivo were implanted in Matrigel-fibrin gel in the presence of doppel and VEGF following an established protocol (see Alajati et al., Nat Methods. 5:439-445 (2008) and Laib et al., Nat Protoc. 4:1202-1215 (2009)); Hu.dpl spheroids were used to compare. […] In contrast, the presence of VEGF and rDPl generated a complete and perfused vascular bed in the Matrigel-fibrin gel. […] These findings support that rDPl enhances angiogenesis in tumor.

EL4 tumor = experiment: Rescue of EL4 tumor growth in Dpl+/− KO mice by rDPl; format: in vivo, Dpl+/− KO C57BL/6 mice
Protocol: To rescue angiogenesis and growth of tumor, Dpl^+/− KO mice were treated with intravenous injection of 1 mg/kg of rDPl three times after the 4th day of EL4 tumor inoculation. EL4 cells were also inoculated with 1 and 10 μg of rDPl in a mixture with 50 μL of Matrigel, in Dpl^+/− KO mice and grown for 10 days.

[4] = test system: HCT116 human colon cancer; experiment: HCT116 human colon cancer mouse xenograft; format: in vivo, mice
Text: The antitumor effect of 4D6 mAb was also observed in HCT116 human colon cancer mouse xenografts. 4D6 mAb inhibited tumor growth (FIG. 19C, D), doppel- and CD31-positive tumor vessels (FIG. 19E), and mean tumor blood vessels density commensurately with dose and dosing frequency (FIG. 19F, G).

VEGFR2 [5] = experiment: mVEGF-induced VEGFR2 phosphorylation in TECs (immunoblot); format: cell-based, mouse; conditions: purified clones
CT26 colon cancer = CT26 colon cancer model, tumor growth and angiogenesis; format: in vivo, mice; conditions: for reduction of tumor growth: intravenous; for tumor volume and weight: intravenous 5 and 10 mg/kg, compared to saline and control IgG
Protocol: Based on the in vitro data, clones 4D6 and 5C7 were selected to study the anti-tumor and anti-angiogenic effect of in a murine-derived CT26 colon cancer model. When the tumors reached an average size of 50 mm^3, the mice were treated with intravenous doses of 5 and 10 mg/kg 4D6 and 5C7 mAb clones. […] When administered at a dose of 10 mg/kg once or twice a week, 4D6 mAb reduced the tumor growth by 71.1±4.2% or 87.9±3.9%, respectively.

doppel = doppel (Mus musculus, UniProt Q9QUG3); experiment: Epitope mapping; format: binding; conditions: doppel peptide mapping
Text: (The same sequence appears in both mouse and human doppel.) FIG. 32 discloses SEQ ID NOS 63-98, respectively, in order of appearance, in the x-axis of the graph and SEQ ID NO: 11 in the body of the graph.
(The corresponding sequence in human doppel is FPDGIH (SEQ ID NO: 61).) FIG. 33 discloses SEQ ID NOS 63-98, respectively, in order of appearance, in the x-axis of the graph and SEQ ID NOS 99-102, 12 and 103-104, respectively, left to right, in order of appearance, in the body of the graph.

TEC spheroids = experiment: TEC spheroid sprouting; format: cell-based, mouse
Protocol: The spheroid-based in vivo angiogenesis assay was performed according to a published procedure. Briefly, 8×10^6 TECs or TEC^−/−dpl were suspended in […] media containing 20% methocel solution and 80% culture medium. Cells were divided into non-adherent plastic square petri dishes, 25 μL for each spheroid. Spheroids formed by TECs or TEC^−/−dpl were harvested and mixed in a matrigel/fibrin mixture that contained mouse VEGF and bFGF. TECs or TEC^−/−dpl spheroids (1000 spheroids per plug) were inoculated subcutaneously in the flank of each female SCID mouse (5-6 weeks, Jungang Animal Lab, Korea) or female Balb/c nude mice (Orinet bio, Seongnam, Korea). The spheroids were allowed to grow for 3 weeks. Cy5.5-labeled LMWH, at a dose 2.5 mg/kg, was injected intravenously, and at 2 hours after injection, its accumulation at the site of TEC implantation was checked using Optimax-MX3 (GE Medical Systems, Milwaukee, Wis.). In other experiments, Cy5.5-labeled LHbisD4, at a dose 10 mg/kg, was administered orally, and its distribution was also checked as described previously. The matrix plug was removed and part of the plugs was analyzed for microvessel density and drug accumulation by immunofluorescence staining.
Custom made murine anti-doppel mAbs were acquired and tested for recognition of mouse doppel present in host-derived blood vessels of tumors, ability to block doppel function in vitro, and ability to arrest tumor growth. The selection strategy involved screening for binding with mouse doppel using ELISA and testing for ability to detect doppel protein in TEC lysates using western blot. Six independent clones (7D9, 1B12, 1C8, 5C7, 4D6, and 6F11) were identified. Of the six clones, 5C7 and 4D6 abrogated mouse VEGF (mVEGF)-induced sprouting of TEC spheroids (FIG. 20A, B).

[6] = Preliminary safety observations in treated tumor-bearing mice; format: in vivo
VEGFR2 [7] = experiment: VEGFR2 dimerization/clustering in Hu.dpl cells (proximity ligation assay, western blot); format: cell-based, human
Text: The effect of doppel on VEGFR2 dimerization in the absence of VEGF was investigated. In situ proximity ligation assay (PLA) was used to see VEGFR2 homodimers/clusters in intact cells (FIG. 22G, H). […] It was observed that the dynamics between VEGFR2 monomer-dimer using western blot (FIG. 28A). In HUVECs, the prominent 125 kDa and a relative weaker 250 kDa band appeared as VEGFR2 monomer and dimer, respectively. In Hu.dpl cells, VEGFR2 was detected at 250 kDa band in immunoblots.

[8] = mVEGF-induced, cell supernatants of clones
[9] = purified clones, different concentrations

Row | epitope bound (doppel) | Molecule | VEGFR2 phosphorylation by VEGF (VEGFR2 [1]) | HUVEC spheroid sprouting (HUVEC spheroids [2]) | hemoglobin content of spheroid plugs (HUVEC spheroids [3]) | growth of tumors (EL4 tumor; EL4 cells inoculated with 1 and 10 μg of rDPl in Matrigel) | localization in tumor tissues (EL4 tumor; intravenously injected rDPl) | doppel- and CD31-positive tumor vessels and mean tumor blood vessels density ([4]; commensurately with dose and dosing frequency) | tumor growth ([4]; intravenous 5 and 10 mg/kg once a week, 10 mg/kg twice a week) | VEGFR2 phosphorylation in TECs (VEGFR2 [5]) | reduction of tumor growth (CT26 colon cancer; 10 mg/kg once a week) | reduction of tumor growth (CT26 colon cancer; 10 mg/kg twice a week) | tumor volume and weight (CT26 colon cancer) | sprouting of TEC spheroids (TEC spheroids; [8]) | sprouting of TEC spheroids (TEC spheroids; [9]) | body weight [6] | clinical chemistry or hematological blood profile [6] | organ pathology upon inspection and histological analysis [6] | VEGFR2 dimerization/clustering (VEGFR2 [7]; Hu.dpl cells, in situ PLA) | VEGFR2 band in immunoblot (VEGFR2 [7]; treated Hu.dpl cells, untreated Hu.dpl 250 kDa (dimer))
1 |  | rDPl: recombinant doppel (rDPl) protein | robustly and dose dependently increased | augmented | higher than control and VEGF-treated spheroids | dose dependently rescued | concentrated and colocalized with VEGFR2- and CD31-positive vessels |  |  |  |  |  |  |  |  |  |  |  |  | 
2 | YWQFPD | 4D6: murine anti-doppel mAb of hybridoma clone 4D6; VL SEQ ID NO: 49, VH SEQ ID NO: 55 (antibody, V domains shown) VH: QVQLHQSGSELARPGASVKLSCKASGYTFTNYWMQWVKQRPGQGLEWIGAIYPGDGNTRYSQKFKGKATLTADKSSSTAYMQLSSLASEDSAVYYCARRDYGSSYWYFDVWGAGTTVTVSS VL: DVLMTQTPLSLPVSLGDQASISCRSSQSIVHSNGNTYLEWYLQKPGQSPKLLIYKVSNRFSGVPDRFSGSGSGTDFTLKISRVEAEDLGVYYCFQGSHVPLTFGAGTKLELKR |  |  |  |  |  | inhibited | inhibited | dose-dependently prevented | 71.1±4.2% | 87.9±3.9% | markedly regressed | abrogated | dose-dependently prevented | no changes | no alteration | no obvious organ pathology |  | 
3 | FPDGIY | 5C7: murine anti-doppel mAb of hybridoma clone 5C7; VL SEQ ID NO: 53, VH SEQ ID NO: 59 (antibody, V domains shown) VH: QVQLQQSGTELVRPGSSVKISCKASGYAFSSHWMNWVKQRPGQGLEWIGQIYPRNGDTNYNGKFKGKATLTADKSSSTAYMQLSSLTSEDSAVYFCSRSTTIVTTGAYWGQGTLVTVSA VL: DIQMTQSPSSLSASLGERVSLTCRASQEISGYLSWLQQKPDGTIKRLIYAASILDSGVPKRFSGSRSGSDYSLTISSLESEDFADYYCLQYASYPFMFGAGTKLELKR |  |  |  |  |  |  |  | dose-dependently prevented |  |  | markedly regressed | abrogated | dose-dependently prevented | no changes | no alteration | no obvious organ pathology | severely compromised | 125 kDa
